Experimental data published in article PMC4132713.
Where “and” joins values, the source holds several entries; their conditions need not be identical. Equal entries are not always repeated.

Experiments:
Conditions in all cases: SPR: TBS (50 mM Tris-HCl, 150 mM NaCl, pH 6.8) or TBS-KCl (150 mM KCl instead of NaCl), 1-32 nM DARPin on 300-500 RU biotinylated DNA; ELISA: 100 nM …
[1] = system: DARPin 1C11 (synthetic construct); assay: SPR
[2] = system: DARPin 1C7 (synthetic construct); assay: SPR
[3] = system: DARPin 1G11 (synthetic construct); assay: SPR
[4] = system: DARPin 1G2 (synthetic construct); assay: SPR
[5] = system: DARPin 1C11 (synthetic construct); assay: SPR; remark: listed apart in the source
[6] = system: DARPin 1C7 (synthetic construct); assay: SPR; remark: listed apart in the source
[7] = system: DARPin 1G2 (synthetic construct); assay: SPR; remark: listed apart in the source
[8] = system: DARPin 2G10 (synthetic construct); assay: SPR
[9] = system: DARPin 2E4 (synthetic construct); assay: SPR
[10] = system: DARPin 2G10 (synthetic construct); assay: SPR; remark: listed apart in the source
[11] = system: DARPin 2E4 (synthetic construct); assay: SPR; remark: listed apart in the source
[12] = system: DARPin 1C6 (synthetic construct); assay: SPR
[13] = system: DARPin 1H4 (synthetic construct); assay: SPR
[14] = system: DARPin 2C10 (synthetic construct); assay: SPR
[15] = system: DARPin 2D10 (synthetic construct); assay: SPR
[16] = system: DARPin 2G7 (synthetic construct); assay: SPR
[17] = system: DARPin 1H4 (synthetic construct); assay: SPR; remark: listed apart in the source
[18] = system: DARPin 2C10 (synthetic construct); assay: SPR; remark: listed apart in the source
[19] = system: DARPin 2D10 (synthetic construct); assay: SPR; remark: listed apart in the source
[20] = system: DARPin 2G7 (synthetic construct); assay: SPR; remark: listed apart in the source
[21] = system: DARPin 1C11 (synthetic construct); assay: competition SPR
[22] = system: DARPin 1C6 (synthetic construct); assay: competition SPR
[23] = system: DARPin 1C7 (synthetic construct); assay: competition SPR
[24] = system: DARPin 1G2 (synthetic construct); assay: competition SPR
[25] = system: DARPin 1H4 (synthetic construct); assay: competition SPR
[26] = system: DARPin 2C10 (synthetic construct); assay: competition SPR
[27] = system: DARPin 2D10 (synthetic construct); assay: competition SPR
[28] = system: DARPin 2G7 (synthetic construct); assay: competition SPR
[29] = system: DARPin 1C11 (synthetic construct); assay: competition SPR; remark: listed apart in the source
[30] = system: DARPin 1C7 (synthetic construct); assay: competition SPR; remark: listed apart in the source
[31] = system: DARPin 1G2 (synthetic construct); assay: competition SPR; remark: listed apart in the source
[32] = system: DARPin 1H4 (synthetic construct); assay: competition SPR; remark: listed apart in the source
[33] = system: DARPin 2C10 (synthetic construct); assay: competition SPR; remark: listed apart in the source
[34] = system: DARPin 2D10 (synthetic construct); assay: competition SPR; remark: listed apart in the source
[35] = system: DARPin 2E4 (synthetic construct); assay: competition SPR
[36] = system: DARPin 2G7 (synthetic construct); assay: competition SPR; remark: listed apart in the source

CAGGGGTGTGGGGACAGGGGTGTGGGGAC [ILPR]
Kd [1]: 0.043 µM
Kd [2]: 0.033 µM
Kd [3]: 0.044 µM
Kd [4]: 0.027 µM
Kd [5]: 0.012 µM and 0.004 µM
Kd [6]: 0.021 µM and 0.014 µM
Kd [7]: 0.0094 µM and 0.0064 µM
Kd [8]: 0.022 µM and 0.019 µM

TGAGGGTGGGTAGGGTGGGTAA [c-MYC]
Kd [1]: 0.049 µM
Kd [2]: 0.081 µM
Kd [3]: 0.019 µM
Kd [4]: 0.043 µM
Kd [9]: 0.064 µM
Kd [10]: 0.09 µM
Kd [5]: 0.017 µM and 0.0068 µM
Kd [7]: 0.016 µM and 0.014 µM
Kd [11]: 0.028 µM and 0.019 µM
Kd [8]: 0.1 µM and 0.015 µM

TTAGGGTTAGGGTTAGGGTTAGGG [tel (biotinylated)]
Kd [1]: 0.053 µM
Kd [12]: 0.016 µM
Kd [2]: 0.037 µM
Kd [3]: 0.072 µM
Kd [4]: 0.053 µM
Kd [13]: 0.062 µM
Kd [14]: 0.048 µM
Kd [15]: 0.034 µM
Kd [16]: 0.02 µM
Kd [5]: 0.011 µM and 0.0089 µM
Kd [6]: 0.015 µM and 0.0033 µM
Kd [7]: 0.0079 µM and 0.0033 µM
Kd [17]: 0.015 µM and 0.014 µM
Kd [18]: 0.02 µM and 0.035 µM
Kd [19]: 0.018 µM and 0.022 µM
Kd [11]: 0.0046 µM and 0.042 µM
Kd [8]: 0.065 µM and 0.015 µM
Kd [20]: 0.01 µM and 0.0055 µM

TTAGGGTTAGGGTTAGGGTTAGGG [tel (non-biotinylated)]
Kd [21]: 0.1 µM
Kd [22]: 0.056 µM
Kd [23]: 0.11 µM
Kd [24]: 0.069 µM
Kd [25]: 0.081 µM
Kd [26]: 0.067 µM
Kd [27]: 0.11 µM
Kd [28]: 0.032 µM
Kd [29]: 0.072 µM
Kd [30]: 0.16 µM
Kd [31]: 0.0036 µM
Kd [32]: 0.019 µM
Kd [33]: 0.16 µM
Kd [34]: 0.16 µM
Kd [35]: 0.12 µM
Kd [36]: 0.008 µM
